The chains are these.
B1: LINE1-full (parent)
chain: UACGUAGGUGGUUUUCCCCUGAUAGUGCUAAGGGGGCCUGGAAGUUUGGACUGGGCAGAGCUCAACACAGCGUGGCAAAGUGGCUGUGGCUAGACUGCCUCUCUGGAUUCCUCGUCACUCAGCAGGGCAUCUCUGAGAGAAAUGCC

The variants in this data set derive from B1. The experiment in a line: self-cleavage, relative activity (ratio to wild type); higher = more cleavage; in vitro, sequencing; the parent is a self-cleaving ribozyme.
As to U9A U134A, the self-cleavage was 1.17.

Regarding A6G U45C, the self-cleavage worked out at 0.5.

As to A6G U45G, the self-cleavage was determined as 0.97.

As for U9A C111G, the self-cleavage was 1.11.

As for U9C C120U, the self-cleavage worked out at 1.3.

Turning to G7A G127A, the self-cleavage worked out at 1.3.

For A6U A22G, the self-cleavage worked out at 0.87.

Consider U9C A79C, for which the self-cleavage worked out at 1.2.

For U9C A79G, the self-cleavage was 1.35.

For U9C A79U, the self-cleavage was determined as 1.66.

On to U9C A31G, for which the self-cleavage was 0.91.

Regarding U9C A31U, the self-cleavage turned out to be 1.2.

U9C A57U: the self-cleavage worked out at 0.24.

In the case of G7U U104C, the self-cleavage was determined as 0.9.

On to A6U U45C, for which the self-cleavage came to 1.35.

With G8A G49A, the self-cleavage came to 1.07.

Take G8A A69C: the self-cleavage came out at 0.04.

Take G7A G8C: the self-cleavage stood at 0.

A6U C95A: the self-cleavage amounted to 0.07.

Take U9C G49U: the self-cleavage was determined as 1.08.

For the variant G7U A94G, the self-cleavage turned out to be 0.36.

On to G8U A59G, for which the self-cleavage stood at 0.12.

As for G7U U73A, the self-cleavage was determined as 1.14.

Take G8A G82A: the self-cleavage was 1.71.

Consider U9C G34U, for which the self-cleavage was 1.09.

Turning to A6G U96C, the self-cleavage worked out at 0.41.

As for A6G U96A, the self-cleavage was found to be 0.2.

For U9C A140G, the self-cleavage was found to be 1.19.

Turning to U9C A140U, the self-cleavage is 1.35.

For U9A C123U, the self-cleavage amounted to 1.11.

Turning to U9C G36C, the self-cleavage was found to be 2.16.

Regarding A6U U87C, the self-cleavage came to 0.16.

As to A6U U87A, the self-cleavage amounted to 0.15.

Regarding U9A U29C, the self-cleavage was 1.19.

Take U9A U29A: the self-cleavage worked out at 0.79.

U9A G125U: the self-cleavage is 0.15.

U9A U46A: the self-cleavage was 1.22.

For the variant A6U U119A, the self-cleavage was determined as 1.74.

For the variant U9A A69U, the self-cleavage amounted to 0.06.

For the variant A6G U100G, the self-cleavage worked out at 0.95.

In the case of G8A U96A, the self-cleavage was 0.08.

For the variant G8A U96C, the self-cleavage came to 0.15.

Regarding U9C A121G, the self-cleavage is 1.27.

Turning to G7A U104C, the self-cleavage was 1.15.

Take G7A U104A: the self-cleavage came to 1.11.

U9A U14C: the self-cleavage was 0.89.

For U9A U14G, the self-cleavage was 0.

G7U U15A: the self-cleavage was found to be 0.97.

U9C C116G: the self-cleavage stood at 1.21.

With A6U C133U, the self-cleavage turned out to be 1.04.

As for U9A A107G, the self-cleavage was determined as 1.02.

G8C U45C: the self-cleavage is 2.04.

With U9C G35U, the self-cleavage amounted to 1.13.

Regarding U9A U91A, the self-cleavage is 0.53.

Regarding U9A U91C, the self-cleavage worked out at 0.36.

Regarding A6G U109C, the self-cleavage amounted to 0.71.

Take A6U U12C: the self-cleavage stood at 1.43.

Consider G8A A22G, for which the self-cleavage worked out at 1.

In the case of U9C G75A, the self-cleavage amounted to 1.4.

With A6U G97A, the self-cleavage is 0.12.

As to U9C A92G, the self-cleavage is 0.1.

Turning to U9C A92C, the self-cleavage was determined as 0.48.

U9C A92U: the self-cleavage worked out at 0.28.

Regarding U9C G72A, the self-cleavage was 1.34.

For the variant U9C A117C, the self-cleavage amounted to 1.41.

Regarding U9A A136U, the self-cleavage turned out to be 0.81.

Consider A6G U115A, for which the self-cleavage amounted to 0.64.

For A6G U115G, the self-cleavage was 2.04.

On to G7U U14C, for which the self-cleavage is 1.39.

Take G7U A140U: the self-cleavage stood at 1.34.

Consider A6G U39A, for which the self-cleavage is 0.6.

With G8A G125U, the self-cleavage stood at 1.53.

Regarding U9C G58A, the self-cleavage came to 0.04.

Take G8U C128U: the self-cleavage stood at 1.14.

Consider U9A U100A, for which the self-cleavage came to 0.72.

For the variant U9C A64C, the self-cleavage stood at 0.35.

With U9C A64U, the self-cleavage was 0.6.

Regarding U9C A22G, the self-cleavage turned out to be 1.03.

As for G7A U132C, the self-cleavage stood at 1.2.

Consider U9C C113A, for which the self-cleavage was found to be 1.2.

Turning to U9C C113U, the self-cleavage is 1.08.

With A6U A140G, the self-cleavage turned out to be 0.77.

For G7A A94U, the self-cleavage is 0.

For the variant G7A A94G, the self-cleavage was found to be 0.14.

Turning to U9A U108A, the self-cleavage turned out to be 1.01.

On to A6U G34U, for which the self-cleavage stood at 1.02.

On to U9A C19U, for which the self-cleavage was 0.71.

Consider U9A A64G, for which the self-cleavage came to 0.26.

In the case of A6U C145U, the self-cleavage worked out at 0.48.

As to G8U U119A, the self-cleavage came out at 1.51.

Take G8A A64G: the self-cleavage was found to be 0.42.

For G8C A141U, the self-cleavage was 1.33.

On to G7A G89A, for which the self-cleavage is 0.02.

Turning to U9A A77G, the self-cleavage stood at 1.61.

With U9A A67U, the self-cleavage worked out at 0.25.

As to G8A A30G, the self-cleavage was found to be 0.67.

As to G7U A69G, the self-cleavage amounted to 0.94.

In the case of A6U U73A, the self-cleavage stood at 1.54.

On to G7A A57U, for which the self-cleavage is 0.07.

Consider G7A U85C, for which the self-cleavage turned out to be 0.11.

For the variant A6U U23A, the self-cleavage was determined as 0.26.

Turning to A6U U23C, the self-cleavage stood at 1.31.

With A6G U46C, the self-cleavage was determined as 0.8.

Regarding A6G U46A, the self-cleavage is 0.94.

With U9A G36A, the self-cleavage was 1.09.

Take U9A U15C: the self-cleavage is 1.08.

Turning to U9C G54A, the self-cleavage was 0.65.

For A6G U143C, the self-cleavage is 0.57.

For U9C A30U, the self-cleavage stood at 0.87.

As to U9C A30G, the self-cleavage amounted to 1.21.

With U9C G21U, the self-cleavage was found to be 1.37.

For G8U A136G, the self-cleavage turned out to be 0.46.

For the variant U9C A77U, the self-cleavage amounted to 1.19.

In the case of G7U C123G, the self-cleavage worked out at 1.13.

Consider G7A A22U, for which the self-cleavage was 0.73.

As to G7A A22G, the self-cleavage is 1.36.

Take A6G U29C: the self-cleavage is 0.74.

For U9C A69U, the self-cleavage worked out at 0.06.

Regarding A6G U108C, the self-cleavage came to 0.79.

Consider A6U U46C, for which the self-cleavage came out at 0.14.

Consider A6U A124G, for which the self-cleavage is 0.6.

In the case of G7U U39A, the self-cleavage came out at 1.67.

As for G7A A121G, the self-cleavage is 1.18.

Regarding A6U U96C, the self-cleavage came out at 0.09.

On to A6G U23C, for which the self-cleavage was found to be 0.93.

Take U9A A59G: the self-cleavage stood at 0.18.

For the variant G8A C120U, the self-cleavage came out at 2.87.

As to G7U G11C, the self-cleavage is 1.02.

Regarding U9A A50G, the self-cleavage worked out at 1.03.

In the case of U9A A50U, the self-cleavage came to 0.45.

In the case of G7A U14C, the self-cleavage was 0.88.

Take U9C G44A: the self-cleavage was determined as 0.69.

As to U9A C131U, the self-cleavage was 0.79.

Take U9C G25U: the self-cleavage is 0.96.

In the case of A6G U130C, the self-cleavage turned out to be 0.81.

Turning to U9A U62C, the self-cleavage was found to be 0.09.

As to G7A U87C, the self-cleavage turned out to be 0.07.

Turning to G7A U87A, the self-cleavage was 0.04.

In the case of A6G U112C, the self-cleavage is 0.96.

For A6G U112A, the self-cleavage came out at 0.95.

As to U9A U115A, the self-cleavage was found to be 1.09.

Take U9C A42C: the self-cleavage came to 0.88.

On to U9A U23C, for which the self-cleavage came out at 0.93.

With G7A U108C, the self-cleavage came out at 1.57.

U9A U109A: the self-cleavage stood at 0.14.

Turning to A6G U102C, the self-cleavage stood at 0.68.

U9A A121U: the self-cleavage came to 2.38.

As to U9A A121G, the self-cleavage worked out at 1.56.

As to G8A G135A, the self-cleavage was found to be 1.23.

On to A6G U62C, for which the self-cleavage came to 0.18.

Turning to A6G U62G, the self-cleavage stood at 0.11.

In the case of U9A U73C, the self-cleavage stood at 0.94.

Turning to U9A U73A, the self-cleavage is 1.29.

Turning to A6G U81A, the self-cleavage amounted to 1.47.

Consider A6U U15C, for which the self-cleavage was determined as 1.09.

Consider A6U U15A, for which the self-cleavage worked out at 0.63.

Regarding A6U U14C, the self-cleavage stood at 0.92.

Regarding G8A U112C, the self-cleavage turned out to be 1.03.

For the variant U9C A65G, the self-cleavage came to 0.16.

As for U9C C17A, the self-cleavage is 1.31.

On to G8A C113A, for which the self-cleavage was 1.31.

In the case of U9A U104A, the self-cleavage is 1.29.

As to U9A U104G, the self-cleavage is 0.98.

For the variant A6U A57U, the self-cleavage is 0.08.

With A6U A57G, the self-cleavage was determined as 0.

For G8A G34U, the self-cleavage turned out to be 1.22.

Regarding A6G U132A, the self-cleavage turned out to be 1.04.

Source of the values: the RNAGym collection of RNA variant scans (doi:10.7554/elife.90254).
